This note sets out measurements from the supplement of paper PMC11316812.

± gives the standard deviation of the averaged measurements.

In one series the test system is hTERT-HMEC. Kind of series: percentage of EdU-negative (G0-arrested) nuclei per well, 72 h; higher = more G0 arrest. Conditions: reference: sequence is the full UniProt precursor, the tested protein was the secreted form or ectodomain.
The subject of another series is MCF7. The description is as above. Conditions: reference: sequence is the full UniProt precursor, the tested protein was the secreted form or ectodomain.
The mark [1] stands for this setting: protein concentration 0.03125 µM.
The mark [2] stands for this setting: protein concentration 0.3125 µM.
Setting [3] is: protein concentration 0.0225 µM.
[4] abbreviates: protein concentration 0.01207 µM.
Setting [5] is: protein concentration 0.1207 µM.
Setting [6] is: protein concentration 0.0111429 µM.
Where [7] appears, read: protein concentration 0.111429 µM.
The mark [8] stands for this setting: protein concentration 0.0076025 µM.
The mark [9] stands for this setting: protein concentration 0.076025 µM.
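Also: secreted proteins added to cultured cells, EdU pulse at the end, nuclei found by Hoechst imaging, EdU status from nuclear versus surrounding ring intensity ratio, PBS as neutral control.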

On to “MALEKSLVRLLLLVLILLVLGWVQPSLGKESRAKKFQRQHMDSDSSPSSSSTYCNQMMRRRNMTQGRCKPVNTFVHEPLVDVQNVCFQEKVTCKNGQGNCYKSNSSMHITDCRLTNGSRYPNCAYRTSPKERHIIVACEGSPYVPVHFDASVEDST”, for which the “percentage of EdU-negative” value in the series on hTERT-HMEC (setting [1]) turned out to be 4.76 ± 0.11%; with hTERT-HMEC (setting [2]), 4.52 ± 0.25%; with MCF7 (setting [1]), 25.8 ± 0.52%; with MCF7 (setting [2]) it was 24.63 ± 0.044%.
Consider “MALFAVFQTTFFLTLLSLRTYQSEVLAERLPLTPVSLKVSTNSTRQSLHLQWTVHNLPYHQELKMVFQIQISRIETSNVIWVGNYSTTVKWNQVLHWSWESELPLECATHFVRIKSLVDDAKFPEPNFWSNWSSWEEVSVQDSTGQDILFVFPKDKLVEEGTNVTICYVSRNIQNNVSCYLEGKQIHGEQLDPHVTAFNLNSVPFIRNKGTNIYCEASQGNVSEGMKGIVLFVSKVLEEPKDFSCETEDFKTLHCTWDPGTDTALGWSKQPSQSYTLFESFSGEKKLCTHKNWCNWQITQDSQETYNFTLIAENYLRKRSVNILFNLTHRVYLMNPFSVNFENVNATNAIMTWKVHSIRNNFTYLCQIELHGEGKMMQYNVSIKVNGEYFLSELEPATEYMARVRCADASHFWKWSEWSGQNFTTLEAAPSEAPDVWRIVSLEPGNHTVTLFWKPLSKLHANGKILFYNVVVENLDKPSSSELHSIPAPANSTKLILDRCSYQICVIANNSVGASPASVIVISADPENKEVEEERIAGTEGGFSLSWKPQPGDVIGYVVDWCDHTQDVLGDFQWKNVGPNTTSTVISTDAFRPGVRYDFRIYGLSTKRIACLLEKKTGYSQELAPSDNPHVLVDTLTSHSFTLSWKDYSTESQPGFIQGYHVYLKSKARQCHPRFEKAVLSDGSECCKYKIDNPEEKALIVDNLKPESFYEFFITPFTSAGEGPSATFTKVTTPDEHSSMLIHILLPMVFCVLLIMVMCYLKSQWIKETCYPDIPDPYKSSILSLIKFKENPHLIIMNVSDCIPDAIEVVSKPEGTKIQFLGTRKSLTETELTKPNYLYLLPTEKNHSGPGPCICFENLTYNQAASDSGSCGHVPVSPKAPSMLGLMTSPENVLKALEKNYMNSLGEIPAGETSLNYVSQLASPMFGDKDSLPTNPVEAPHCSEYKMQMAVSLRLALPPPTENSSLSSITLLDPGEHYC”, for which the “percentage of EdU-negative” value was determined as 4.25 ± 0.45% in the series with hTERT-HMEC (setting [3]), 5.8 ± 0.95% in the series on hTERT-HMEC (protein concentration 0.225 µM), 26.44 ± 0.24% with MCF7 (setting [3]) and 24.9 ± 2% in the series with MCF7 (protein concentration 0.225 µM).
Take “MALFVRLLALALALALGPAATLAGPAKSPYQLVLQHSRLRGRQHGPNVCAVQKVIGTNRKYFTNCKQWYQRKICGKSTVISYECCPGYEKVPGEKGCPAALPLSNLYETLGVVGSTTTQLYTDRTEKLRPEMEGPGSFTIFAPSNEAWASLPAEVLDSLVSNVNIELLNALRYHMVGRRVLTDELKHGMTLTSMYQNSNIQIHHYPNGIVTVNCARLLKADHHATNGVVHLIDKVISTITNNIQQIIEIEDTFETLRAAVAASGLNTMLEGNGQYTLLAPTNEAFEKIPSETLNRILGDPEALRDLLNNHILKSAMCAEAIVAGLSVETLEGTTLEVGCSGDMLTINGKAIISNKDILATNGVIHYIDELLIPDSAKTLFELAAESDVSTAIDLFRQAGLGNHLSGSERLTLLAPLNSVFKDGTPPIDAHTRNLLRNHIIKDQLASKYLYHGQTLETLGGKKLRVFVYRNSLCIENSCIAAHDKRGRYGTLFTMDRVLTPPMGTVMDVLKGDNRFSMLVAAIQSAGLTETLNREGVYTVFAPTNEAFRALPPRERSRLLGDAKELANILKYHIGDEILVSGGIGALVRLKSLQGDKLEVSLKNNVVSVNKEPVAEPDIMATNGVVHVITNVLQPPANRPQERGDELADSALEIFKQASAFSRASQRSVRLAPVYQKLLERMKH”: the “percentage of EdU-negative” value came to 5.243 ± 0.015% in the series on hTERT-HMEC (setting [4]), 4.82 ± 0.7% with hTERT-HMEC (setting [5]), 25.4 ± 0.46% with MCF7 (setting [4]) and 28.3 ± 0.63% in the series on MCF7 (setting [5]).
As for “MALGLLIAVPLLLQAAPRGAAHYEMMGTCRMICDPYTAAPGGEPPGAKAQPPGPSTAALEVMQDLSANPPPPFIQGPKGDPGRPGKPGPRGPPGEPGPPGPRGPPGEKGDSGRPGLPGLQLTAGTASGVGVVGGGAGVGGDSEGEVTSALSATFSGPKIAFYVGLKSPHEGYEVLKFDDVVTNLGNHYDPTTGKFSCQVRGIYFFTYHILMRGGDGTSMWADLCKNGQVRASAIAQDADQNYDYASNSVVLHLDSGDEVYVKLDGGKAHGGNNNKYSTFSGFLLYPD [Q7Z5L3]”, the “percentage of EdU-negative” value in the series with hTERT-HMEC (setting [6]) is 5.39 ± 0.86%; in the series with hTERT-HMEC (setting [7]) it was 5.7 ± 1.1%; in the series with MCF7 (setting [6]), 22.8 ± 1.6%; with MCF7 (setting [7]), 30 ± 0.7%.
On to “MALGQKLFITMSRGAGRLQGTLWALVFLGILVGMVVPSPAGTRANNTLLDSRGWGTLLSRSRAGLAGEIAGVNWESGYLVGIKRQRRLYCNVGIGFHLQVLPDGRISGTHEENPYSLLEISTVERGVVSLFGVRSALFVAMNSKGRLYATPSFQEECKFRETLLPNNYNAYESDLYQGTYIALSKYGRVKRGSKVSPIMTVTHFLPRI”, for which the “percentage of EdU-negative” value in the series on hTERT-HMEC (setting [8]) is 4.73 ± 0.69%; with hTERT-HMEC (setting [9]), 5.27 ± 0.17%; with MCF7 (setting [8]) it was 25.3 ± 0.82%; with MCF7 (setting [9]), 25 ± 2.6%.
With “MALGVPISVYLLFNAMTALTEEAAVTVTPPITAQQGNWTVNKTEADNIEGPIALKFSHLCLEDHNSYCINGACAFHHELEKAICRCFTGYTGERCEHLTLTSYAVDSYEKYIAIGIGVGLLLSGFLVIFYCYIRKRCLKLKSPYNVCSGERRPL”, the “percentage of EdU-negative” value in the series on hTERT-HMEC (setting [1]) came out at 5.25 ± 0.34%; in the series with hTERT-HMEC (setting [2]), 5.12 ± 0.77%; in the series with MCF7 (setting [1]), 26.2 ± 0.87%; in the series on MCF7 (setting [2]) it was 27 ± 2.6%.
